# pKd: −log10 of the molar value. Positions of bridges follow the written chain, without caps; N, C: chain ends. Residues, ends and D or L forms follow the SMILES beside them. No end group written: not given here.
# Experiments:
# [1] = Stability of 125I-odorranalectin in mice plasma in vitro; assay type: in vitro ADME; settings: mice plasma 100% (v/v) and 50% in PBS pH 7.4, 5 µCi, 37 °C, sampled 0-5 h; radiochemical purity by silica gel paper chromatography and HPLC with radioactive detector
# Experimental: In order to evaluate the stability of ^125I- odorranalectin in vitro, a degradation experiment of ^125I-odorranalectin in mice plasma was performed. The details are provided in the supplementary materials (Materials and Methods S1).
# Stability of ^125I-odorranalectin in vitro. In order to evaluate the stability of ^125I- odorranalectin in vitro, a degradation experiment of ^125I-odorranalectin in mice plasma was performed. Briefly, 5 µCi ^125I-odorranalectin (about 10 µl) was added to 790 µl plasma (100%, v/v) freshly prepared and 400 µL plasma (50%) admixed with 390 µl PBS (pH 7.4) in two 1.5-ml centrifuge tubes, respectively, which maintained at 37 °C in a rolling water-bath incubator. Then at each time point (0, 1, 2, 3, 4 and 5 h), a glass microcap was used to take samples for silica gel paper chromatography (SGPC) analysis and high-performance liquid chromatography (HPLC) for calculating the radiochemical purity of ^125I-odorranalectin. In detail, the developing agent of SGPC was methanol: water = 85:15 (v/v); After spotted and the solvent reached the frontier, the silica gel paper strip was dried and cut to ten equations (Fig. S3 and Table S7), and then set in 10 tubes, following determined radiocounting of each piece in a SN-695 Intellectual Radio-immunity γ Measurement (Shanghai Institute of Nuclear Research Ri Huan Instrument Factory, China), respectively. […]
# human erythrocytes = experiment: Erythrocytes hemagglutination; assay type: cell-based; settings: blood group not named
# [2] = SPR, odorranalectin and its mutants binding L-fucose; settings: peptide immobilized, L-fucose as analyte, NA = no binding to L-fucose, read-out: binding affinity (KD)
# Experimental: Real time detection of odorranalectin and its mutants binding to glycoproteins and L-fucose was recorded by using a Biacore 3000 [21]–[24]. The details are provided in the supplementary materials (Materials and Methods S1).
# SPR Analysis. Real time detection of odorranalectin and its mutants binding to glycoproteins and L-fucose was recorded by using a Biacore 3000 [21-24]. Odorranalectin was immobilized covalently via their primary amines to carboxyl groups within a dextran layer on the sensor chip CM-5 according to the manufacturer’s specifications. After chip activation with 0.4 M 1-ethyl-3- (3-dimethylaminopropyl) carbodiimide hydrochloride and 10 mM N-hydroxysuccinimide, odorranalectin or its mutants (in 10 mM sodium acetate buffer, pH 4.0) at a concentration of 100 μg/ml was passed through the flow cells at a rate of 5 μl/min. After immobilization, the chip was capped by exposure to 1 M ethanolamine (pH 8.5).
# All analyses were performed at a flow rate of 30 μl/min. Before loading of analytes, the chip was equilibrated with 10 mM HEPES-buffered saline containing 3 mM EDTA and 0.005% surfactant P-20, pH 7.4 (HBS-EP). […]
# Association and dissociation rate constants (ka and kd) were calculated by using BIA evaluation 4.0 software (Biacore AB, Sweden). The affinity constant (KD) was calculated from the ka and kd. […]
# [3] = Tissue distribution of 125I-odorranalectin in vivo; parameters: species or system KM mice; settings: 400 µCi·kg^-1, mice, 5-300 min, Mean ± SD, n=3
# Experimental: Sixty-three female KM mice (18∼22 g) were grouped randomly into three groups receiving oral, intravenous and intranasal administration of ^125I-odorranalectin at equal radiation dose (400 µCi·kg^−1), respectively. The detail procedures are provided in the supplementary materials (Materials and Methods S1).
# (§1) Each experiment was carried out in triplicate. Values are given as means±SD. All the concentration data were plotted directly as radiocounting-time curves of the blood and tissues, and the area under the curve (AUC0→t) was calculated by the trapezoidal rule. The statistical differences between per oral or intranasal administrations and intravenous administration were assessed using student's t test and P<0.05 as statistical significance.
# Tissue distribution of ^125I-odorranalectin in vivo. Sixty-three female KM mice (18~22 g) were grouped randomly to three groups receiving oral, intravenous and intranasal administration at equal radiation dose (400 µCi·kg^-1), respectively. The procedure for intranasal administration was performed gently and slowly so as to allow the mice to inhale all of the preparations (each nostril 10 µl). At different time intervals (5, 15, 30, 60, 120, 180 and 300 min) following administration, blood sample was collected via eye puncture; subsequently, the mice were humanly sacrificed, and tissues such as heart, liver, spleen, lung, stomach (content removed), kidney and brain were harvested and stuffed into a special tube after the remnant blood was blotted by tissue paper, following weighing, respectively. Finally, the radiocounting of each tissue was determined in a SN-695 Intellectual Radio-immunity γ Measurement to evaluate odorranalectin intake.
# as §1, with “Data analysis. Each” for “Each”, “means ± SD.” for “means±SD.”, “under” for “under the”, “student’s” for “student's”, “P< 0.05” for “P<0.05”
compound,measurement,setting,value
"CC(C)C[C@@H]1NC(=O)[C@H](C(C)C)NC(=O)CNC(=O)[C@H](CC(N)=O)NC(=O)[C@@H]2CCCN2C(=O)[C@H](Cc2ccc(O)cc2)NC(=O)[C@H](CCCNC(=N)N)NC(=O)[C@H](Cc2ccccc2)NC(=O)[C@@H](NC(=O)[C@H](CCCCN)NC(=O)[C@@H]2CCCN2C(=O)[C@H](CO)NC(=O)[C@H](C)NC(=O)[C@@H](N)Cc2ccc(O)cc2)CSSC[C@@H](C(=O)N[C@H](C(=O)O)[C@@H](C)O)NC(=O)[C@H](C)NC1=O [odorranalectin] (HELM PEPTIDE1{Y.A.S.P.K.C.F.R.Y.P.N.G.V.L.A.C.T}$PEPTIDE1,PEPTIDE1,6:R3-16:R3$$$V2.0)",Time of stability in mice plasma,[1],more than 5 hours
same,minimum concentration (MIC) to agglutinate intact human erythrocytes,human erythrocytes,0.75 µg/mL
YASPGGFRYPNGVLACT [Odorranalectin T17/G17],pKd,[2],2.09
"^125I-odorranalectin: odorranalectin labeled by 125I with iodogen method (YASPKCFRYPNGVLACT; disulfide 6-16; ends not checked; also: 125I on a tyrosine, which one is not given here)",Time of stability in mice plasma,[1],at least 5 hours
same,AUC Blood,[3]; in (intranasal),6.77±3.05 *10^7 CPM·min
same,AUC Brain,[3]; in (intranasal),0.36±0.15 *10^7 CPM·min
same,AUC Heart,[3]; in (intranasal),2.88±1.16 *10^7 CPM·min
same,AUC Kideny,[3]; in (intranasal),5.17±2.10 *10^7 CPM·min
same,AUC Liver,[3]; in (intranasal),3.53±1.50 *10^7 CPM·min
same,AUC Lung,[3]; in (intranasal),12.50±3.77 *10^7 CPM·min
same,AUC Spleen,[3]; in (intranasal),4.48±1.86 *10^7 CPM·min
same,AUC Stomach,[3]; in (intranasal),125.61±44.28 *10^7 CPM·min
same,AUC Blood,[3]; iv,5.41±1.11 *10^7 CPM·min
same,AUC Brain,[3]; iv,0.46±0.047 *10^7 CPM·min
same,AUC Heart,[3]; iv,3.37±0.51 *10^7 CPM·min
same,AUC Kideny,[3]; iv,8.47±1.41 *10^7 CPM·min
same,AUC Liver,[3]; iv,98.51±6.22 *10^7 CPM·min
same,AUC Lung,[3]; iv,246.41±62.56 *10^7 CPM·min
same,AUC Spleen,[3]; iv,64.82±8.61 *10^7 CPM·min
same,AUC Stomach,[3]; iv,20.90±3.09 *10^7 CPM·min
same,AUC Blood,[3]; po,4.89±0.69 *10^7 CPM·min
same,AUC Brain,[3]; po,0.25±0.024 *10^7 CPM·min
same,AUC Heart,[3]; po,1.99±0.24 *10^7 CPM·min
same,AUC Kideny,[3]; po,3.84±0.76 *10^7 CPM·min
same,AUC Liver,[3]; po,2.42±0.29 *10^7 CPM·min
same,AUC Lung,[3]; po,4.02±0.51 *10^7 CPM·min
same,AUC Spleen,[3]; po,3.60±0.35 *10^7 CPM·min
same,AUC Stomach,[3]; po,126.64±32.27 *10^7 CPM·min

# From publication PMC2440032, “Odorranalectin Is a Small Peptide Lectin with Potential for Drug Delivery and Targeting” (PLoS ONE, 2008)
